Assay results published in US20200157212A1 (Pfizer, published 2020).

B1: 93H2 (antibody, human IgG1, kappa, V domains shown)
VH: EVQLVQSGAEVKKPGASVKVSCKASGYTFTGYYMHWVRQAPGQGLEWMGWINPNSGATNFPQKFQGRVTMTRDTSITTAYMDLSRLRSDDTAVYYCARESGDDAFDIWGQGTMVTVSS
VL: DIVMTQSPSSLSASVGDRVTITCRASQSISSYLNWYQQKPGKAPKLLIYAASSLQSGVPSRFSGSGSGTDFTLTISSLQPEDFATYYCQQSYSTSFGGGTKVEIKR
notes: also called parental 93H2; 93H2 mAb
B2: Abcs35 (antibody, human IgG1, kappa)
heavy: EVQLVQSGAEVKKPGASVKVSCKASGYTFTGYYMHWVRQAPGQGLEWMGWINPKNGDTEFPQKFQGRVTMTRDTSITTAYMDLSRLRSDDTAVYYCARESGDDAFDIWGQGTMVTVSSASTKGPSVFPLAPSSKSTSGGTAALGCLVKDYFPEPVTVSWNSGALTSGVHTFPAVLQSSGLYSLSSVVTVPSSSLGTQTYICNVNHKPSNTKVDKKVEPKSCDKTHTCPPCPAPEAAGAPSVFLFPPKPKDTLMISRTPEVTCVVVDVSHEDPEVKFNWYVDGVEVHNAKTKPREEQYNSTYRVVSVLTVLHQDWLNGKEYKCKVSNKALPAPIEKTISKAKGQPREPQVYTLPPSREEMTKNQVSLTCLVKGFYPSDIAVEWESNGQPENNYKTTPPVLDSDGSFFLYSKLTVDKSRWQQGNVFSCSVMHEALHNHYTQKSLSLSPGK
light: DIVMTQSPSSLSASVGDRVTITCRASQSISSYLNWYQQKPGKAPKLLIYAASSLQSGVPSRFSGSGSGTDFTLTISSLQPEDFATYYCQQSVGLFFGGGTKVEIKRTVAAPSVFIFPPSDEQLKSGTASVVCLLNNFYPREAKVQWKVDNALQSGNSQESVTEQDSKDSTYSLSSTLTLSKADYEKHKVYACEVTHQGLSSPVTKSFNRGEC
notes: fully human IgG1; VH of Ab96 with VL of Ab123

Tests used:
[1] = molecular target: T1, Human ROBO2 overexpressed on HEK293 cells (human, UniProt Q9HCK4 22-1378); test: flow cytometry, Geo MFI ROBO2/ROBO1 HEK293 cells, 0.1 µg/ml
T1 construct: also called ROBO2 cells; native ROBO2
T1 sequence: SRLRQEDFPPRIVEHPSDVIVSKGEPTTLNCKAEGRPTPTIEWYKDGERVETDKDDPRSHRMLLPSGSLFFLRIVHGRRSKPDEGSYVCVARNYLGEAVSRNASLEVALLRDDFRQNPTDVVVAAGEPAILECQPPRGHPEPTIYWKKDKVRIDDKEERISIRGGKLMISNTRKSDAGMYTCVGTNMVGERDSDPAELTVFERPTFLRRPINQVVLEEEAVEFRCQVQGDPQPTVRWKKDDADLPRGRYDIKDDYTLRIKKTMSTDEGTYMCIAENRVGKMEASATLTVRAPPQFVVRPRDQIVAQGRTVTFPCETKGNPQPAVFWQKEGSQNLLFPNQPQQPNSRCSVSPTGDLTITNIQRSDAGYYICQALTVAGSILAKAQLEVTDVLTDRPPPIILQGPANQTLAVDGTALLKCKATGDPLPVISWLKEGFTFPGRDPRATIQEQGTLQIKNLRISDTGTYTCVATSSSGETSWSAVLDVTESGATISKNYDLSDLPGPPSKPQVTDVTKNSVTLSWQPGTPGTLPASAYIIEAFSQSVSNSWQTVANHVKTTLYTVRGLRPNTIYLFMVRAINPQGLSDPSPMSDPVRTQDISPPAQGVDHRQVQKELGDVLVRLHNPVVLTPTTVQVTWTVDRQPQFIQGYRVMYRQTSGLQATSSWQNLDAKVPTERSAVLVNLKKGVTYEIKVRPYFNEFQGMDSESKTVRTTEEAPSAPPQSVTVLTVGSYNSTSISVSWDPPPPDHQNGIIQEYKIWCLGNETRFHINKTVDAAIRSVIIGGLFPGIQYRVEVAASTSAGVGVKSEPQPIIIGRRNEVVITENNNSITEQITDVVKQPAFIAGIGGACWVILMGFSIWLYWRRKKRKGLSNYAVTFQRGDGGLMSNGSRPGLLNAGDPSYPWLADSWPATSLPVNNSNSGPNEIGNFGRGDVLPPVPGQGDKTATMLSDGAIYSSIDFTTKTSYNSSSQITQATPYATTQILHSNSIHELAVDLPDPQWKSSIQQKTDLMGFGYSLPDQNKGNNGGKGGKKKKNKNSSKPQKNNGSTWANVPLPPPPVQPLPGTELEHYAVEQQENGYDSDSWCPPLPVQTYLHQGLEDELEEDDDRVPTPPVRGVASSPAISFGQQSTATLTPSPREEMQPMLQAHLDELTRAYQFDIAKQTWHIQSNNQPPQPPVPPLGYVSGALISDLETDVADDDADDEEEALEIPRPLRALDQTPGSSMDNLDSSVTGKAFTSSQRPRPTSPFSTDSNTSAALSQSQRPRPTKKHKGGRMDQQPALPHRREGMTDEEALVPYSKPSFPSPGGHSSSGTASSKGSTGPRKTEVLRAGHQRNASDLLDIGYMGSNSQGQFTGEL

[2] = molecular target: T2, Terbium (Tb) labeled-SNAP tagged ROBO2 expressed on HEK293 cells (Homo sapiens (Human), UniProt Q9HCK4 22-1378, terbium label on the SNAP tag); test: HTRF competition on ROBO2 expressing cells; blocked ligand SLIT2-N; 11 points up to 10^2 nM, another dilution series than that of Table 2
T2 construct: also called Tb-labeled ROBO2 cells; ROBO2 expressing cells; not shown: SNAP tag
T2 sequence: T1 sequence

Row | Binder | Fold Selectivity for ROBO2/ROBO1 [1] [fold] | IC50 (read off the curve) [2] [pM]
1 | B1 | > 100 | –
2 | B2 | – | ~50
